Test results reported in US20090028851A1 (MAXPLANCK GESELLSCHAFT ZUR F RDERUNG DER WISSENSCH, published 2009).
One block for each binder: values may come before it. Where no end group is shown, it is not given here.

Tests used:
[1] = molecular target: T1, rat Eag1 (rat brain sections, hippocampus and cerebellum) (rat, UniProt Q63472 1-962); assay: immunohistochemistry on rat brain sections (hippocampus, cerebellum)
T1 construct: whole, on cells; Native protein in fixed tissue sections (immunohistochemistry)
T1 sequence (looked up): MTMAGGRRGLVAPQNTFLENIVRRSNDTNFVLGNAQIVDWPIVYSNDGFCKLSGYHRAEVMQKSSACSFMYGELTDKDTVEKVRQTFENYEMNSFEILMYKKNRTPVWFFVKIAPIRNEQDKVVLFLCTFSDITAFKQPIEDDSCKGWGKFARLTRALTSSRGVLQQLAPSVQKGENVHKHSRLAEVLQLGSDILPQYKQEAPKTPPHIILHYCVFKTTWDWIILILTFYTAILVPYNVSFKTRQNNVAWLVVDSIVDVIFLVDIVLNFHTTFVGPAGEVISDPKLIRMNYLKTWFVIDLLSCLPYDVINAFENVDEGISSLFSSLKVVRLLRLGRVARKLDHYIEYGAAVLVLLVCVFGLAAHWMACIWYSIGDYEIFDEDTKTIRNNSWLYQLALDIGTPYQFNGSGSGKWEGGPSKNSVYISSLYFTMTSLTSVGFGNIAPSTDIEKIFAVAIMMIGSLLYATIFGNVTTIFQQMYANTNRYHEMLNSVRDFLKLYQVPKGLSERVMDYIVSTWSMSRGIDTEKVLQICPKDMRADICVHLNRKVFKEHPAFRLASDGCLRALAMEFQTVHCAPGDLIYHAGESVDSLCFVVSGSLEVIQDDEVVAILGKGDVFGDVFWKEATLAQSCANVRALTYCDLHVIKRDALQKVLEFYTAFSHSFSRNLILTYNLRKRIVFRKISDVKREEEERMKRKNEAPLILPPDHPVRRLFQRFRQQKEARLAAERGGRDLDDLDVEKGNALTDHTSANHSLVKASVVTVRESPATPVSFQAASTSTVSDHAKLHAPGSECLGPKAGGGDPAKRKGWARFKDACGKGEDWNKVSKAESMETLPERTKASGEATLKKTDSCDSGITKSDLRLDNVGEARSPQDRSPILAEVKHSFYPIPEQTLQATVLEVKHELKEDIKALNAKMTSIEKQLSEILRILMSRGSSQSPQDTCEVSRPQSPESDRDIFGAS

[2] = molecular target: T2, SPOT peptide 5, SGMGDYEIFDEDT (also: covalently bound to a cellulose SPOT membrane); assay: SPOT peptide membrane, ECL
T2 construct: also called spot 5
T2 peptide: SGMGDYEIFDEDT

[3] = molecular target: T3, SPOT peptide 7, DYEIFDEDTKTIR (also: covalently bound to a cellulose SPOT membrane); assay: SPOT peptide membrane, ECL
T3 construct: also called spot 7
T3 peptide: DYEIFDEDTKTIR

[4] = molecular target: T4, SPOT peptide 8, EIFDEDTKTIRNN; assay: SPOT peptide membrane, ECL
T4 construct: also called spot 8
T4 peptide: EIFDEDTKTIRNN

[5] = molecular target: T5, SPOT peptide 3, HHHSSGMGDYEIF (also: covalently bound to cellulose SPOT membrane); assay: SPOT peptide membrane, ECL
T5 construct: holds residues of the immunogen's His tag; also called spot 3
T5 peptide: HHHSSGMGDYEIF

[6] = molecular target: T6, SPOT peptide 6, MGDYEIFDEDTKT (also: covalently bound to a cellulose SPOT membrane); assay: SPOT peptide membrane, ECL
T6 construct: also called spot 6
T6 peptide: MGDYEIFDEDTKT

[7] = molecular target: T7, SPOT peptide 4, HSSGMGDYEIFDE (also: covalently bound to cellulose SPOT membrane); assay: SPOT peptide membrane, ECL
T7 construct: also called spot 4
T7 peptide: HSSGMGDYEIFDE

[8] = molecular target: Eag1 ion channel expressed in cells (Eag1 overexpressing CHO K1 cells; Eag1-expressing oocytes; transfected HEK293 cells) (UniProt O95259); assay: cell-based or functional assay
[9] = molecular target: T8, SPOT peptide 23, GSGSGKWEGGPSK; assay: SPOT peptide membrane, ECL
T8 construct: also called spot 23
T8 peptide: GSGSGKWEGGPSK

[10] = molecular target: T9, SPOT peptide 22, FNGSGSGKWEGGP; assay: SPOT peptide membrane, ECL
T9 construct: also called spot 22
T9 peptide: FNGSGSGKWEGGP

[11] = molecular target: T10, SPOT peptide 24, GSGKWEGGPSKNS; assay: SPOT peptide membrane, ECL
T10 construct: also called spot 24
T10 peptide: GSGKWEGGPSKNS

[12] = molecular target: T11, SPOT peptide 21, YQFNGSGSGKWEG; assay: SPOT peptide membrane, ECL
T11 construct: also called spot 21
T11 peptide: YQFNGSGSGKWEG

binding result [1]: binds
binding result [2]: binds
binding result [3]: binds
binding result [4]: binds
binding result [5]: binds
binding result [6]: binds
binding result [7]: binds
B1: mouse monoclonal anti-Eag1 antibody ImAb4 (antibody, mouse IgG2b, kappa, V domains shown)
VH: DVQLQESGPGLVKPSQSLSLTCTVTGYSITSDYAWNWIRQFPGNKLEWMGYISYSGSTIYNPSLKSRISITRDTSKNQFFLQLNSVTTEDTATYYCARFGNYGNTLNYWGQGTSVTVSS
VL: DVVMTQTPLSLPVSLGDQASISCRSSQSLVHSNGNTYLHWYLQKPGQSPKLLIYKVSNRFSGVPDRFSGSGSGTDFTLKISRVEAEDLGVYFCSQSTHVPPTFGGGTKLEIKR
notes: Murine IgG2b / kappa

current inhibition, whole cell patch clamp on transfected HEK293 cells, 300 nM antibody [8]: 35%
binding result [9]: binds
binding result [10]: binds
binding result [11]: binds
binding result [12]: binds
B2: mouse monoclonal anti-Eag1 antibody ImAb3 (antibody, mouse IgG2b, kappa, V domains shown)
VH: EVKLVESGGGLVQPGGSLRLSCATSGFTFTDYYMSWVRQPPGKALEWLGFIRNKATGYTTEYSASVKGRFTISRDNSQSILYLQMNTLRAEDSATYYCARDFGSRWYFDVWGAGTTVTVSS
VL: DIVMSQSPSSLAVSAGEKVTMSCKSSQSLLNSRTRKNYLAWYQQKPGQSPKLLIYWASTRESGVPDRFTGSGSGTDFTLTISSVQAEDLAVYYCKQSYDLRTFGGGTKLEIKR
notes: Murine IgG2b / kappa
